{"source": "patent US20190375786A1", "about": "“STABLE PEPTIDES AND METHODS OF USE THEREOF” (Fred Hutchinson Cancer Research Center, priority 2016, published 2019)", "key": {"[1]": {"test": "Resistance to reduction by reduced glutathione (GSH), HPLC", "type": "physicochemical", "details": "10 mM reduced glutathione (GSH); HPLC vs non-reduced peptide", "protocol": "This example describes stability of designed or engineered peptides under reducing conditions. Peptides that are designed or engineered to interact with one or more target proteins in the cell, such as proteins in the nucleus, are exposed to reducing conditions in the cytosolic compartment of cells. Thus, it is advantageous for peptides of this disclosure to display stability in reducing conditions. Stability of peptides of this disclosure was tested in 10 mM DTT and 10 mM GSH. GSH is a more physiologically relevant reducing agent for testing peptide stability in intracellular conditions. An example of a peptide-target protein interaction is a peptide binding to a TEAD protein."}, "trypsin": {"biological_target": "trypsin (Sus scrofa, UniProt P00761)", "sequence (P00761 9-231)": "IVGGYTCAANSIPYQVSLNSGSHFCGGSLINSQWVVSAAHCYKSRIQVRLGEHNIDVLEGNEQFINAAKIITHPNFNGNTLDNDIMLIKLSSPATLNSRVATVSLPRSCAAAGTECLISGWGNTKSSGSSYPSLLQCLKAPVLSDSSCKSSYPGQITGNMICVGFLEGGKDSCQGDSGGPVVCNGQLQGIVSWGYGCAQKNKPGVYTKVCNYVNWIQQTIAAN", "test": "SDPR surface display protease resistance, anti-6xHis staining, trypsin", "type": "cell-based", "details": "HEK-293 cells, up to 40 μg/ml trypsin for 20 minutes", "protocol": "Soluble peptides were exposed to 500 U/mL porcine trypsin and analyzed by HPLC. Protease resistance was also assessed by using SDPR-displaying peptides. The SDPR vector is similar to the a surface display GFP FasL(SDGF) vector, but contains a C-terminal 6×His tag (SEQ ID NO: 180) and all basic or aromatic amino acid residues on the stalk removed. Protease resistance is then tested by incubation of cells displaying peptides with trypsin or chymotrypsin, followed by incubation in 10 mM DTT, and staining with an anti-6×His fluorophore-labeled antibody (“6×His” disclosed as SEQ ID NO: 180). If peptides are uncleaved, they retain the His tag and are stained with by the antibody. A control protease-sensitive knottin peptide (SK) was used as a positive control. Cells displaying peptides were treated with up to 40 μg/ml trypsin or chymotrypsin.\nTo determine the impact of protease treatment or reducing condition on the function of the peptides, i.e., binding activity, various binding or functional assays can be performed. […] After treatment with the protease and reducing agent, any linearized peptide product or degradation product resulting from reduction and/or proteolysis by treatment with a protease can be detected or analyzed by staining against the 6×His tag (SEQ ID NO: 180). […]"}, "[2]": {"test": "Circular dichroism thermal stability, heating 20° C. to 95° C.", "type": "physicochemical", "details": "10 mM phosphate buffer pH 7.4; heated 20° C. to 95° C.", "protocol": "(§1) Protein secondary structures were assessed using Circular Dichrosim (CD). CD spectra were measured with a Jasco J-720W spectropolarimeter using a 1.0 mm path length cell. Protein samples in 10 mM phosphate buffer (pH=7.4) were at 25-30 μM protein concentration. Samples were analyzed at wavelength ranges of […]. Data were expressed in terms of relative ellipticity [θ]; (mdeg). To determine thermal stability of proteins, samples were subjected to incremental increase in temperature at a ramp of 2° C./min from 20° C. to 95° C. Stability and protein unfolding were monitored at 220 and 215 for α-helix and β-sheet secondary structures, respectively. Data are expressed in terms of relative ellipticity [θ], reported in mdeg. For SEQ ID NO: 43 and its point mutant variants, no changes to the α-helix-dominated structure were observed upon heating up to 95° C. […] Additionally, protein melting temperature (Tm) determination was performed by monitoring protein unfolding using SYPRO Orange dye (Molecular Probes). In brief, 0.1 mg/mL protein sample in 20 μL total volume PBS buffer were mixed with 24, of 10× SYPRO Orange dye. Dye intercalation into the hydrophobic protein core following protein unfolding was assayed using the C1000 Touch Thermal Cycler with CFX96 Deep Well Real-Time System (BioRad). Samples were heated from 20° C. to 95° C. with stepwise increments of 0.5° C. per minute and a 5 sec hold step for every point, followed by fluorescence reading. Tm were calculated by analyzing the derivatives of Relative florescence Units (RFU). FIG. 17D illustrates this SYPRO Orange melting assay of Peptides."}, "[3]": {"test": "SYPRO Orange melting assay", "type": "physicochemical", "details": "heating from 20° C. to 95° C.", "protocol": "as §1"}}, "data": [{"sequence": "GSPDEYIERAKECCKKQDIQCCLRIFDESKDPNVMLICLFCW [SEQ ID NO: 43]", "values": [{"measurement": "resistance to GSH reducing conditions", "setting": "[1]", "value": "resistant"}, {"measurement": "resistance of surface-displayed peptide to cleavage by trypsin", "setting": "trypsin", "value": "partially resistant"}, {"measurement": "CD secondary structure signature before (Pre) and after (Post) incubation at 95° C.", "setting": "[2]", "value": "identical"}, {"measurement": "melting temperature (Tm)", "setting": "[3]", "value": "no melting temperature could be determined"}]}]}
